Target: phycobilisome core (CK) of allophycocyanin cylinders from a Synechocystis PCC 6803 mutant lacking the rods (Synechocystis sp. PCC 6803 (endogenous in the rod-less mutant)) (UniProt Q01951)

B1: N-terminal domain (NTD) of the orange carotenoid protein (OCP) binding canthaxanthin (holo-NTD) (domain or fragment)
chain: VPATIARFSQLNAEDQLALIWFAYLEMGKTLTIAAPGAASMQLAENALKEIQAMGPLQQTQAMCDLANRADTPLCRTYASWSPNIKLGFWYRLGELMEQGFVAPIPAGYQLSANANAVLATIQGLESGQQITVLRNAVVDMGFTA
fraction of the decay of excited CK bilins that is quenched (112 ps component) in CK-NTD, transient absorption with excitation at 694 nm: 76%

From publication PMC11311238
